Assay results as given in patent publication US20080234193A1 (published 2008).

Columns and labels:
[1] = biological target: T1, native rVWF 133P1 (human, UniProt P04275 764-2813); experiment: SPR (Biacore 3000): native rVWF 133P1 immobilized on CM5 chip, FVIII sample in flow, 1:1 Langmuir model
T1 construct: mature; Starting material for PEGylation; multimers of the mature monomer (about 260 kDa on reducing SDS-PAGE); also called unmodified rVWF

[2] = biological target: activated factor IX (FIXa); experiment: cell-based or functional assay

B1: FVIII control (mock preparation, not PEGylated) (other)
chain: ATRRYYLGAVELSWDYMQSDLGELPVDARFPPRVPKSFPFNTSVVYKKTLFVEFTDHLFNIAKPRPPWMGLLGPTIQAEVYDTVVITLKNMASHPVSLHAVGVSYWKASEGAEYDDQTSQREKEDDKVFPGGSHTYVWQVLKENGPMASDPLCLTYSYLSHVDLVKDLNSGLIGALLVCREGSLAKEKTQTLHKFILLFAVFDEGKSWHSETKNSLMQDRDAASARAWPKMHTVNGYVNRSLPGLIGCHRKSVYWHVIGMGTTPEVHSIFLEGHTFLVRNHRQASLEISPITFLTAQTLLMDLGQFLLFCHISSHQHDGMEAYVKVDSCPEEPQLRMKNNEEAEDYDDDLTDSEMDVVRFDDDNSPSFIQIRSVAKKHPKTWVHYIAAEEEDWDYAPLVLAPDDRSYKSQYLNNGPQRIGRKYKKVRFMAYTDETFKTREAIQHESGILGPLLYGEVGDTLLIIFKNQASRPYNIYPHGITDVRPLYSRRLPKGVKHLKDFPILPGEIFKYKWTVTVEDGPTKSDPRCLTRYYSSFVNMERDLASGLIGPLLICYKESVDQRGNQIMSDKRNVILFSVFDENRSWYLTENIQRFLPNPAGVQLEDPEFQASNIMHSINGYVFDSLQLSVCLHEVAYWYILSIGAQTDFLSVFFSGYTFKHKMVYEDTLTLFPFSGETVFMSMENPGLWILGCHNSDFRNRGMTALLKVSSCDKNTGDYYEDSYEDISAYLLSKNNAIEPRSFSQNSRHPSQNPPVLKRHQREITRTTLQSDQEEIDYDDTISVEMKKEDFDIYDEDENQSPRSFQKKTRHYFIAAVERLWDYGMSSSPHVLRNRAQSGSVPQFKKVVFQEFTDGSFTQPLYRGELNEHLGLLGPYIRAEVEDNIMVTFRNQASRPYSFYSSLISYEEDQRQGAEPRKNFVKPNETKTYFWKVQHHMAPTKDEFDCKAWAYFSDVDLEKDVHSGLIGPLLVCHTNTLNPAHGRQVTVQEFALFFTIFDETKSWYFTENMERNCRAPCNIQMEDPTFKENYRFHAINGYIMDTLPGLVMAQDQRIRWYLLSMGSNENIHSIHFSGHVFTVRKKEEYKMALYNLYPGVFETVEMLPSKAGIWRVECLIGEHLHAGMSTLFLVYSNKCQTPLGMASGHIRDFQITASGQYGQWAPKLARLHYSGSINAWSTKEPFSWIKVDLLAPMIIHGIKTQGARQKFSSLYISQFIIMYSLDGKKWQTYRGNSTGTLMVFFGNVDSSGIKHNIFNPPIIARYIRLHPTHYSIRSTLRMELMGCDLNSCSMPLGMESKAISDAQITASSYFTNMFATWSPSKARLHLQGRSNAWRPQVNNPKEWLQVDFQKTMKVTGVTTQGVKSLLTSMYVKEFLISSSQDGHQWTLFFQNGKVKVFQGNQDSFTPVVNSLDPPLLTRYLRIHPQSWVHQIALRMEVLGCEAQDLY
[1]
  Kd: 0.55 nM
[2]
  lag phase (min), FIXa-cofactor activity after thrombin activation: 1.13 min
  lag phase (min), FIXa-cofactor activity without thrombin activation: 1.8 min
  maximum FXa (nM), FIXa-cofactor activity after thrombin activation: 33.7 nM
  maximum FXa (nM), FIXa-cofactor activity without thrombin activation: 39.6 nM
  maximum rate (nM FXa/min), FIXa-cofactor activity after thrombin activation: 9.79 nM FXa/min
  maximum rate (nM FXa/min), FIXa-cofactor activity without thrombin activation: 8.8 nM FXa/min
  t1/2 of maximum (min), FIXa-cofactor activity after thrombin activation: 2.85 min
  t1/2 of maximum (min), FIXa-cofactor activity without thrombin activation: 4 min
